Blank lines part the entries; values can stand above or below the binder they belong to. Starred links: 1 amine or outer side, 2 acyl side, 3 side chain; linkers in the order of their positions; H or OH if unused. Non-standard residues stand in square brackets, D forms with d. *: point of attachment. PEG12 = NCCOCCOCCOCCOCCOCCOCCOCCOCCOCCOCCOCCOCCC(=O)O; Oic = O=C(O)[C@@H]1C[C@@H]2CCCC[C@@H]2N1; Phe(4-Cl) = N[C@@H](Cc1ccc(Cl)cc1)C(=O)O; γGlu = O=C(O)[C@H](CCC(=O)[*:2])N[*:1]; NMeR = CN[C@@H](CCCNC(=N)N)C(=O)O; Tridecanoyl = CCCCCCCCCCCCC(=O)*; hArg = N=C(N)NCCCC[C@H](N)C(=O)O; Cha = N[C@@H](CC1CCCCC1)C(=O)O; Nle = CCCC[C@H](N)C(=O)O; AEEA = NCCOCCOCC(=O)O; Aib = CC(C)(N)C(=O)O; Mpa = O=C(O)CCS
Tests used:
Experiment in all cases: cell-based or functional assay
human APJ receptor [1] = target: T1, human APJ receptor (human, UniProt P35414 1-380)
T1 sequence (looked up): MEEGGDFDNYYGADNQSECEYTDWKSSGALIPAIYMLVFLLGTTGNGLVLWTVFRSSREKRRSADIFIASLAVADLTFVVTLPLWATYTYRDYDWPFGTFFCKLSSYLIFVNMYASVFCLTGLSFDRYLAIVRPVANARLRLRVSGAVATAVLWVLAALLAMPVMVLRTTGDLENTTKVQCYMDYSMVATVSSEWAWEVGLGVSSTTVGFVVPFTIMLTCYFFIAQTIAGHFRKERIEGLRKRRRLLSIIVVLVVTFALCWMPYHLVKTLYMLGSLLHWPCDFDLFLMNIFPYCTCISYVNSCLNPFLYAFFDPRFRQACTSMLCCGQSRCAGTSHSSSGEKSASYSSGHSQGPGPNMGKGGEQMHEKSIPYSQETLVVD

rat APJ receptor [2] = target: T2, rat APJ receptor (rat, UniProt Q9JHG3 1-377)
T2 sequence (looked up): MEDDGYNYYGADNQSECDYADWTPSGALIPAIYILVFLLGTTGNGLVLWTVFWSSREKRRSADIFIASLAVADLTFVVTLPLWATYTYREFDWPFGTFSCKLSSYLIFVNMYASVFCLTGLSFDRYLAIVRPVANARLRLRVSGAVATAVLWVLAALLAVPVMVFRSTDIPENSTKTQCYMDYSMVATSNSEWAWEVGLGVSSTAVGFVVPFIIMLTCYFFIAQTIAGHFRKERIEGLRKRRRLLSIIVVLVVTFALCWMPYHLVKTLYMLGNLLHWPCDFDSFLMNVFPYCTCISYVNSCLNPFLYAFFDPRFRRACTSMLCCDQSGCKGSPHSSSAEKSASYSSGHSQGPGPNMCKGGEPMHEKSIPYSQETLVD

human APJ receptor [3] = target: T3, human APJ receptor (human, UniProt P35414 1-380); remark: listed apart in the source
T3 sequence (looked up): T1 sequence (looked up)

rat APJ receptor [4] = target: T4, rat APJ receptor (rat, UniProt Q9JHG3 1-377); remark: listed apart in the source
T4 sequence (looked up): T2 sequence (looked up)

EC50 Human APJ Receptor (human APJ receptor [1]): 8.06 nM
EC50 Rat APJ Receptor (rat APJ receptor [2]): 45.4 nM
B1: apelin polypeptide SEQ ID NO: 100 (peptide)
peptide: {20K mPEGacetamide}-[Mpa]RQRP[hArg][Cha]SHKG[Oic][Nle]P[Phe(4-Cl)]-OH
modifications: numbers in words are those of the source; also: 20 kDa PEG conjugate

EC50 Human APJ Receptor (µM), GTPγS assay (human APJ receptor [3]): 7.95e-05 µM
EC50 Rat APJ Receptor (µM), GTPγS assay (rat APJ receptor [4]): 0.000245 µM
B2: modified apelin polypeptide SEQ ID NO: 507 (peptide)
peptide: XXQRPRLSHKGPXPF
modifications: {TDA} [Aeea] [Aeea] Q R P [NMeArg] L S H K G P [Nle] P [4-Cl-F] {COOH}: N-terminal tridecanoyl (TDA)-Aeea-Aeea; NMeArg, Nle, 4-Cl-F non-canonical; free C-terminal acid

EC50 Human APJ Receptor (µM), GTPγS assay (human APJ receptor [3]): 0.000735 µM
EC50 Rat APJ Receptor (µM), GTPγS assay (rat APJ receptor [4]): 0.00354 µM
B3: modified apelin polypeptide SEQ ID NO: 539 (peptide)
peptide: Tridecanoyl-[γGlu][PEG12][dQ]RP[NMeR][Cha]SHKG[Oic][Nle][Aib][Phe(4-Cl)]-OH
SMILES: CCCCCCCCCCCCC(=O)N[C@@H](CCC(=O)NCCOCCOCCOCCOCCOCCOCCOCCOCCOCCOCCOCCOCCC(=O)N[C@H](CCC(N)=O)C(=O)N[C@@H](CCCNC(=N)N)C(=O)N1CCC[C@H]1C(=O)N(C)[C@@H](CCCNC(=N)N)C(=O)N[C@@H](CC1CCCCC1)C(=O)N[C@@H](CO)C(=O)N[C@@H](Cc1c[nH]cn1)C(=O)N[C@@H](CCCCN)C(=O)NCC(=O)N1[C@H](C(=O)N[C@@H](CCCC)C(=O)NC(C)(C)C(=O)N[C@@H](Cc2ccc(Cl)cc2)C(=O)O)C[C@@H]2CCCC[C@@H]21)C(=O)O

EC50 Human APJ Receptor (µM), GTPγS assay (human APJ receptor [3]): 0.000525 µM
EC50 Rat APJ Receptor (µM), GTPγS assay (rat APJ receptor [4]): 0.00189 µM
B4: modified apelin polypeptide SEQ ID NO: 538 (peptide)
peptide: Tridecanoyl-[dD][AEEA][AEEA][dQ]RP[NMeR][Cha]SHKG[Oic][Nle][Aib][Phe(4-Cl)]-OH
SMILES: CCCCCCCCCCCCC(=O)N[C@H](CC(=O)O)C(=O)NCCOCCOCC(=O)NCCOCCOCC(=O)N[C@H](CCC(N)=O)C(=O)N[C@@H](CCCNC(=N)N)C(=O)N1CCC[C@H]1C(=O)N(C)[C@@H](CCCNC(=N)N)C(=O)N[C@@H](CC1CCCCC1)C(=O)N[C@@H](CO)C(=O)N[C@@H](Cc1c[nH]cn1)C(=O)N[C@@H](CCCCN)C(=O)NCC(=O)N1[C@H](C(=O)N[C@@H](CCCC)C(=O)NC(C)(C)C(=O)N[C@@H](Cc2ccc(Cl)cc2)C(=O)O)C[C@@H]2CCCC[C@@H]21

EC50 Human APJ Receptor (µM), GTPγS assay (human APJ receptor [3]): 0.000478 µM
EC50 Rat APJ Receptor (µM), GTPγS assay (rat APJ receptor [4]): 0.00123 µM
B5: modified apelin polypeptide SEQ ID NO: 546 (peptide)
peptide: Tridecanoyl-D[AEEA][AEEA][dQ]RP[NMeR][Cha]SHKG[Oic][Nle][Aib][Phe(4-Cl)]-OH

EC50 Rat APJ Receptor (µM), GTPγS assay (rat APJ receptor [4]): 0.000968 µM
B6: modified apelin polypeptide SEQ ID NO: 511 (peptide)
peptide: XXXQRPRLSHKGPXPF
modifications: {TetDDA} [AC4Abu] [Aeea] [Aeea] Q R P [NMeArg] L S H K G P [Nle] P [4-Cl-F] {COOH}: N-terminal tetradecanedioyl (TetDDA)-gammaGlu (AC4Abu)-Aeea-Aeea; NMeArg, Nle, 4-Cl-F non-canonical; free C-terminal acid

EC50 Human APJ Receptor (µM), GTPγS assay (human APJ receptor [3]): 0.00277 µM
EC50 Rat APJ Receptor (µM), GTPγS assay (rat APJ receptor [4]): 0.00246 µM
B7: modified apelin polypeptide SEQ ID NO: 346 (peptide)
peptide: Tridecanoyl-[γGlu][AEEA][AEEA]RQRPK[Cha]AA[Nle]G[Oic][Nle]P[Phe(4-Cl)]-OH
SMILES: CCCCCCCCCCCCC(=O)N[C@@H](CCC(=O)NCCOCCOCC(=O)NCCOCCOCC(=O)N[C@@H](CCCNC(=N)N)C(=O)N[C@@H](CCC(N)=O)C(=O)N[C@@H](CCCNC(=N)N)C(=O)N1CCC[C@H]1C(=O)N[C@@H](CCCCN)C(=O)N[C@@H](CC1CCCCC1)C(=O)N[C@@H](C)C(=O)N[C@@H](C)C(=O)N[C@@H](CCCC)C(=O)NCC(=O)N1[C@H](C(=O)N[C@@H](CCCC)C(=O)N2CCC[C@H]2C(=O)N[C@@H](Cc2ccc(Cl)cc2)C(=O)O)C[C@@H]2CCCC[C@@H]21)C(=O)O
